Measured values: patent US20080014191A1

How the values were obtained:
[1] = target: ΔF508 CFTR (Homo sapiens (Human)) (UniProt P13569); assay: CFTR co-IP, MudPIT MS; BHK ΔF508
[2] = target: wild-type cystic fibrosis transmembrane conductance regulator (CFTR) (Homo sapiens (Human)) (UniProt P13569); assay: CFTR co-IP, MudPIT MS; BHK wt
[3] = target: wild-type cystic fibrosis transmembrane conductance regulator (CFTR) (Homo sapiens (Human)) (UniProt P13569); assay: CFTR co-IP, MudPIT MS; BHK wt, Calu-3, HT29, T84
[4] = target: wild-type cystic fibrosis transmembrane conductance regulator (CFTR) (Homo sapiens (Human)) (UniProt P13569); assay: CFTR co-IP, MudPIT MS; cell line not stated
[5] = target: ΔF508 CFTR (Homo sapiens (Human)) (UniProt P13569); assay: CFTR co-IP, MudPIT MS; ΔF508

Chain of ΔF508 CFTR (Homo sapiens (Human)) (P13569 other isoform, or with tags, fused parts or gaps mutant limits assumed): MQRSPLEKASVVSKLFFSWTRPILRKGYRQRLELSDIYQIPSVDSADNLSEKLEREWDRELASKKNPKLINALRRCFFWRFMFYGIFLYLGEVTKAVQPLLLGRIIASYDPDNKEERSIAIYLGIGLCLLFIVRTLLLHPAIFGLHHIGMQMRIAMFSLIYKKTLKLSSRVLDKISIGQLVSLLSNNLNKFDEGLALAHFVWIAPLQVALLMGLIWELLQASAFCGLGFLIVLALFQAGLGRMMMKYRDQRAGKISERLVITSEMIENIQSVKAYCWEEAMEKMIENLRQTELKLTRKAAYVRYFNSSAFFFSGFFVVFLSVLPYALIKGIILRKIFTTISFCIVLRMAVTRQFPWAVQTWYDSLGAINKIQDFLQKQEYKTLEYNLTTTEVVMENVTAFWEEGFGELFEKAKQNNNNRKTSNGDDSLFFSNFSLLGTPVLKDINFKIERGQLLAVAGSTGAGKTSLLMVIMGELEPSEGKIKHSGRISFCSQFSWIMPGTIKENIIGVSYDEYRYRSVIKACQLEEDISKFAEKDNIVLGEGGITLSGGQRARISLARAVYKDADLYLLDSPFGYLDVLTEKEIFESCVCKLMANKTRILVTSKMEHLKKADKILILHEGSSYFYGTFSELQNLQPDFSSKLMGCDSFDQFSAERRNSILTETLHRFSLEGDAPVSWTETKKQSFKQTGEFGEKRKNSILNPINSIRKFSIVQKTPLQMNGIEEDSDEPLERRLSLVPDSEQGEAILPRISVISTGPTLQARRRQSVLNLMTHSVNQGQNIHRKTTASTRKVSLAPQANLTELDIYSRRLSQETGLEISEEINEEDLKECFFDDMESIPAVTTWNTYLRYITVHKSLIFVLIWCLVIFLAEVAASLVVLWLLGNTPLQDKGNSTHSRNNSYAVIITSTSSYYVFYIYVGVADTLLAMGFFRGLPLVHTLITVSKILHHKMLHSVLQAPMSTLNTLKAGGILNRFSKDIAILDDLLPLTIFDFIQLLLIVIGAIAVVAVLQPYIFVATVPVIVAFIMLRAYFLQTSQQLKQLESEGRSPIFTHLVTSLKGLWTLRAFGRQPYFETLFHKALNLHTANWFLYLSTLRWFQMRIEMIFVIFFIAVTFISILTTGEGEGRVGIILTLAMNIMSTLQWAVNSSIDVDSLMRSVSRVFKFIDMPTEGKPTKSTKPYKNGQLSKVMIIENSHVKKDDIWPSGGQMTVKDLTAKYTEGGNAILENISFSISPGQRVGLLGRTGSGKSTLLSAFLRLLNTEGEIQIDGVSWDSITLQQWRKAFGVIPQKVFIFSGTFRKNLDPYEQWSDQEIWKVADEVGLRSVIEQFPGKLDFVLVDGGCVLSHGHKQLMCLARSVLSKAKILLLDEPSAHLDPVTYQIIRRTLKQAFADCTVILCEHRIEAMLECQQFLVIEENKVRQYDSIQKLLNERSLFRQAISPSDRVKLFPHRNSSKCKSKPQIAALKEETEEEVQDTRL
Chain of wild-type cystic fibrosis transmembrane conductance regulator (CFTR) (Homo sapiens (Human)) (P13569 whole entry): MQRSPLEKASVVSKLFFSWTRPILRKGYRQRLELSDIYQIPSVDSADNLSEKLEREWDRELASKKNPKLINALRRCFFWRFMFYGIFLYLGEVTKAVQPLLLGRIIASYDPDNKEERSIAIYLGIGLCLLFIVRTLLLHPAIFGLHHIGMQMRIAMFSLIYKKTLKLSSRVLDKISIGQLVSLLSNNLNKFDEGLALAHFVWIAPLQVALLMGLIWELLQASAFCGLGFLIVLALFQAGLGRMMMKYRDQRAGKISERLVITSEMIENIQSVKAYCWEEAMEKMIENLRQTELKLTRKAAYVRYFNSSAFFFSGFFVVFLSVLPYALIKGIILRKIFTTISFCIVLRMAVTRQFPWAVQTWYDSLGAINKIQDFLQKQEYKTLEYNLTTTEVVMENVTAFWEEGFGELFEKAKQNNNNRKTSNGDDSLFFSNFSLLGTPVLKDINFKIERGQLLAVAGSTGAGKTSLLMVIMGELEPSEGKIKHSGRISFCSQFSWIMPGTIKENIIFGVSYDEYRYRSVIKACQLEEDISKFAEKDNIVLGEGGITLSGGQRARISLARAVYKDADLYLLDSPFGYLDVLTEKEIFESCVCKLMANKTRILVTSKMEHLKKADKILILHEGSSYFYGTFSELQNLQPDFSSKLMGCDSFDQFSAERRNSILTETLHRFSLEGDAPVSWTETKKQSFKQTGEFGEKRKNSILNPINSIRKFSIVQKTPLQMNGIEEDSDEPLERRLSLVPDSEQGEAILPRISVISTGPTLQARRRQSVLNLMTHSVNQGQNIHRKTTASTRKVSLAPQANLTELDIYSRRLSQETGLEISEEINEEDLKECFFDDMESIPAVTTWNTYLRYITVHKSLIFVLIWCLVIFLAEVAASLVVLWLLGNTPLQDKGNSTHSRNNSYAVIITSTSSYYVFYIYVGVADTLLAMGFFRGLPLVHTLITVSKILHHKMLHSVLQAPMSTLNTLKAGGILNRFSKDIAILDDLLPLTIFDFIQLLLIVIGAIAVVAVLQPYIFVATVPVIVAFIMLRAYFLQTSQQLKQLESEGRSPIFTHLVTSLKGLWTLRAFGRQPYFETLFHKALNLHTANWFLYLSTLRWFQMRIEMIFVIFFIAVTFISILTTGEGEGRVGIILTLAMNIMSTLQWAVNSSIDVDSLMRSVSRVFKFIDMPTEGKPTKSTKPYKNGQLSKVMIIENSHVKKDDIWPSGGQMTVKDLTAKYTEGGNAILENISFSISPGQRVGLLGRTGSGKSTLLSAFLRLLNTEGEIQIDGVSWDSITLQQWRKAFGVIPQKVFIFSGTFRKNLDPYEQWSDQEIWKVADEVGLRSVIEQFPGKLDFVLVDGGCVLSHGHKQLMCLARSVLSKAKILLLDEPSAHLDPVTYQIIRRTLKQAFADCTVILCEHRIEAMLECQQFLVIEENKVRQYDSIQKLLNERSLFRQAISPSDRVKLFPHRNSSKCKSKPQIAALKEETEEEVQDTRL

Row | Substance | % sequence coverage [1] [%] | total spectra [1] [spectra] | unique spectra [1] [spectra] | % sequence coverage [4] [%] | total peptide spectra [4] [spectra] | unique peptide spectra [4] [spectra] | other results
1 | GRP75 (from UniProt P38647 47-679) | 34 | 40 | 23 |  |  |  | 
2 | TCP1 (from UniProt P11983 1-556) | 10 | 5 | 3 |  |  |  | % sequence coverage [2]: 9%; total spectra [2]: 5 spectra; unique spectra [2]: 3 spectra
3 | THR interactor 12 (from UniProt Q14669 2-1992) |  |  |  |  |  |  | % sequence coverage [3]: 2%; total peptide spectra [3]: 2 spectra; unique peptide spectra [3]: 2 spectra
4 | Hsp40-A2 (Hdj3) (from UniProt O60884 1-409) | 32 | 19 | 9 |  |  |  | % sequence coverage [2]: 28%; total spectra [2]: 16 spectra; unique spectra [2]: 6 spectra
5 | sorting nexin 4 (from UniProt O95219 1-450) |  |  |  | 3 | 5 | 3 | 
6 | proteasome 26S, non-ATPase, 2 (from UniProt Q13200 1-908) |  |  |  |  |  |  | % sequence coverage [5]: 13%; total peptide spectra [5]: 8 spectra; unique peptide spectra [5]: 7 spectra; % sequence coverage [3]: 4%; total peptide spectra [3]: 2 spectra; unique peptide spectra [3]: 2 spectra
7 | proteasome, alpha type 2 (from UniProt P49722 2-234) |  |  |  |  |  |  | % sequence coverage [5]: 17%; total peptide spectra [5]: 5 spectra; unique peptide spectra [5]: 2 spectra
8 | Hsp90, alpha (from UniProt P07900 2-732) | 39 | 37 | 24 |  |  |  | % sequence coverage [2]: 6%; total spectra [2]: 5 spectra; unique spectra [2]: 4 spectra
9 | Hsp90β (from UniProt P11499 2-724) | 36 | 49 | 24 |  |  |  | % sequence coverage [2]: 21%; total spectra [2]: 18 spectra; unique spectra [2]: 11 spectra
10 | BAG-3 (from UniProt Q9JLV1 2-577) | 12 | 5 | 4 |  |  |  | 
11 | Reticulocalbin 2 (from UniProt Q8BP92 26-320) | 9 | 4 | 3 |  |  |  | % sequence coverage [2]: 22%; total spectra [2]: 12 spectra; unique spectra [2]: 6 spectra
12 | flotillin 2 (from UniProt Q60634 2-428) |  |  |  | 5 | 2 | 2 | 
13 | VPS 4A (from UniProt Q9UN37 1-437) |  |  |  | 5 | 2 | 2 | 
14 | ubiquitin specific protease 9 (from UniProt Q93008 1-2554) (enzyme) |  |  |  |  |  |  | % sequence coverage [3]: 1%; total peptide spectra [3]: 3 spectra; unique peptide spectra [3]: 2 spectra
15 | Cdc37 (from UniProt Q61081 1-379) | 8 | 3 | 2 |  |  |  | 
16 | Calumenin (from UniProt O43852 20-315) |  |  |  |  |  |  | % sequence coverage [2]: 7%; total spectra [2]: 3 spectra; unique spectra [2]: 3 spectra
17 | Hsc-Hsp70/Hsp90 organizing protein (HOP) (from UniProt Q60864 1-543) | 11 | 4 | 4 |  |  |  | 
18 | proteasome, alpha type 5 (from UniProt Q9Z2U1 1-241) |  |  |  |  |  |  | % sequence coverage [5]: 23%; total peptide spectra [5]: 3 spectra; unique peptide spectra [5]: 3 spectra
19 | VCP (RefSeq NM_009503) (from UniProt Q01853 2-806) |  |  |  | 7 | 2 | 2 | 
20 | RalBP1 associated Eps domain containing protein (Reps1) (from UniProt O54916 1-795) |  |  |  | 6 | 2 | 2 | 
21 | sortilin-related receptor L (SORL1) (from UniProt Q92673 82-2214) |  |  |  | 1 | 12 | 1 | 
22 | βCOP (from UniProt P53618 2-953) |  |  |  | 5 | 2 | 2 | 
23 | cyclophilin B (from UniProt P23284 34-216) | 13 | 2 | 2 |  |  |  | 
24 | CLCA1 (from UniProt A8K7I4 22-914) |  |  |  | 2 | 2 | 2 | 
25 | Hsc70 (from UniProt P63018 2-646) |  |  |  |  |  |  | % sequence coverage [2]: 48%; total spectra [2]: 132 spectra; unique spectra [2]: 39 spectra
26 | VCP/p97/Cdc48 (from UniProt P55072 2-806) |  |  |  |  |  |  | % sequence coverage [5]: 25%; total peptide spectra [5]: 14 spectra; unique peptide spectra [5]: 10 spectra; % sequence coverage [3]: 7%; total peptide spectra [3]: 2 spectra; unique peptide spectra [3]: 2 spectra
